{
  "source": "patent CN116836273A",
  "key": {"[1]": {"target": "血清淀粉样蛋白A (Serum amyloid A, SAA) (UniProt P0DJI8)", "sequence (P0DJI8 19-122 limits assumed)": "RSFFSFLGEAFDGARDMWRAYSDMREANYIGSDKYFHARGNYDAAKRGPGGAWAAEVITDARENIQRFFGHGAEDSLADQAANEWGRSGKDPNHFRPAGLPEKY", "test": "BLI, antibody captured on AMC sensor, SAA in solution"}, "[2]": {"target": "血清淀粉样蛋白A (Serum amyloid A, SAA) (UniProt P0DJI8)", "test": "indirect ELISA, SAA coated at 2 ug/ml, antibody at 15 ng/ml"}, "[3]": {"target": "血清淀粉样蛋白A (Serum amyloid A, SAA) (UniProt P0DJI8)", "test": "indirect ELISA, SAA coated at 2 ug/ml, antibody at 30 ng/ml"}, "[4]": {"target": "血清淀粉样蛋白A (Serum amyloid A, SAA) (UniProt P0DJI8)", "test": "indirect ELISA, SAA coated at 2 ug/ml, antibody at 60 ng/ml"}, "[5]": {"target": "血清淀粉样蛋白A (Serum amyloid A, SAA) (UniProt P0DJI8)", "test": "indirect ELISA, SAA coated at 2 ug/ml, antibody at 7.5 ng/ml"}, "[6]": {"target": "血清淀粉样蛋白A (Serum amyloid A, SAA) (UniProt P0DJI8)", "test": "indirect ELISA, SAA coated at 2 ug/ml, antibody at 3.75 ng/ml"}, "[7]": {"target": "血清淀粉样蛋白A (Serum amyloid A, SAA) (UniProt P0DJI8)", "test": "indirect ELISA, SAA coated at 2 ug/ml, antibody at 0 ng/ml (blank)"}},
  "note": "pKd: −log10 of the molar value.",
  "data": [
    {"substance": "对照 (control antibody)", "values": [
      {"measurement": "pKd", "setting": "[1]", "value": 8.10},
      {"measurement": "koff", "setting": "[1]", "value": "9.82e-05", "unit": "s⁻¹"},
      {"measurement": "kon", "setting": "[1]", "value": 12300, "unit": "M⁻¹ s⁻¹"},
      {"measurement": "OD (OD450 (ref. 630 nm))", "setting": "[2]", "value": 0.912},
      {"measurement": "OD (OD450 (ref. 630 nm))", "setting": "[3]", "value": 1.63},
      {"measurement": "OD (OD450 (ref. 630 nm))", "setting": "[4]", "value": 1.79},
      {"measurement": "OD (OD450 (ref. 630 nm))", "setting": "[5]", "value": 0.562},
      {"measurement": "OD (OD450 (ref. 630 nm))", "setting": "[6]", "value": 0.316},
      {"measurement": "OD (OD450 (ref. 630 nm))", "setting": "[7]", "value": 0.009}
    ]}
  ]
}
